For the series, the target named is T1, BMC01 (uncultured bacterium (metagenome)).
T1 chain: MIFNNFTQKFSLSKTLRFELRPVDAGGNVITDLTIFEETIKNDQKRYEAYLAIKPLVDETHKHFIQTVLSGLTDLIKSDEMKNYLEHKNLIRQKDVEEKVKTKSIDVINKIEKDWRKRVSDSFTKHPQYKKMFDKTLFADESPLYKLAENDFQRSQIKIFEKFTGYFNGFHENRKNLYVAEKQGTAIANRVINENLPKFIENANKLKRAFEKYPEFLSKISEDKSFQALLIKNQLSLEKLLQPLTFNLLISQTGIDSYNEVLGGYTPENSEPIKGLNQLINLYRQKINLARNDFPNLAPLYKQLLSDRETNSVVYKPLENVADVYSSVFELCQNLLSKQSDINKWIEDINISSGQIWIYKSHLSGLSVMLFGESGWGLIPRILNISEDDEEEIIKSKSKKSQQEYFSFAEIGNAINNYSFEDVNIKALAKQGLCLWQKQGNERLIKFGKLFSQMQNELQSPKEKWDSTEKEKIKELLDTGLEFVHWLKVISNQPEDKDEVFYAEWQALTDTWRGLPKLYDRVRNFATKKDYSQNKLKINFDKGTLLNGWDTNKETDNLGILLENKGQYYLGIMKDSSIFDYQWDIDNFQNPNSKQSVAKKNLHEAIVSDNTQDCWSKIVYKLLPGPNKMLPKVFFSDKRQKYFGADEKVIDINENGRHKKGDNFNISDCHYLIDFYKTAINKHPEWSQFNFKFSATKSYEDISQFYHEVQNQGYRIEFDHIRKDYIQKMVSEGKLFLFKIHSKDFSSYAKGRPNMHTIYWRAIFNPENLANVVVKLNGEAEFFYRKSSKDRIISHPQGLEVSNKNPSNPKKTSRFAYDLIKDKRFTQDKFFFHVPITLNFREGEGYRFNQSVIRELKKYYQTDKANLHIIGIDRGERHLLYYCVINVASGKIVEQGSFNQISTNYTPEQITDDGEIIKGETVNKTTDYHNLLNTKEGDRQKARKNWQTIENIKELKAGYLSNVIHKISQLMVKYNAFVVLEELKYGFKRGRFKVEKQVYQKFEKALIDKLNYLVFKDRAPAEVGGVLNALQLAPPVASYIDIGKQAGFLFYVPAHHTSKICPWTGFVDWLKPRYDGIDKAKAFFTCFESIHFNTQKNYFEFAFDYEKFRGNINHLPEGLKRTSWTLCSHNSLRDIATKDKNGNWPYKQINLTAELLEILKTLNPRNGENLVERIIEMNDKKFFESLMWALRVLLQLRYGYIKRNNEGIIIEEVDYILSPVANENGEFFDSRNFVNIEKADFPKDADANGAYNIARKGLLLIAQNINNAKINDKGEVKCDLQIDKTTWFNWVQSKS
Kind of series: cell_activity; PAM not stated; E. coli depletion, 30 C. The method, boiled down:
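E. coli carrying arabinose-induced (0.2%) BMC nuclease, grown at 30° C., made electrocompetent and electroporated with 50-100 ng plasmid carrying gRNA against malQ. Transformants plated on selective M9-glucose agar with kanamycin/ampicillin (± nourseothricin), and growth scored after 48 h at 30° C.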

B1: malQ gRNA (BMC stem-loop + 24 nt spacer) ; malQ protospacer (ssRNA ; dsDNA)
RNA: GAUUUCUACUAUUGUAGAUGUGGCGGUACGUUGAUGCAUCGCG
DNA 1: GTGGCGGTACGTTGATGCATCGCG
DNA 2: CGCGATGCATCAACGTACCGCCAC
B1: the activity is above 99.9 % colony reduction.

(Values after patent publication US20250277199, “NOVEL CRISPR-CAS NUCLEASES FROM METAGENOMES” (Brain Biotech AG, published 2025).)
